Experimental data published in patent US20230340151A1 (Pfizer, published 2023).

T1: Human CD3 epsilon-delta (human)
T1 construct: Single-chain epsilon-linker-delta with His6; also called huCD3
T1 chain: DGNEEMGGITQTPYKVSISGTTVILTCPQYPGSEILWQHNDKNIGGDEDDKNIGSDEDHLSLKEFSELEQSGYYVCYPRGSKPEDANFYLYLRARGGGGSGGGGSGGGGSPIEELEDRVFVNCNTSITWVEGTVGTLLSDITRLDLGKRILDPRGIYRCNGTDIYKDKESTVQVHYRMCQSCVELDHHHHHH


Tests used:
[1] = biological target: Human GUCY2c on tumor cells (T84, HT55) (human, UniProt P25092 24-1073); test: cell-based or functional assay
[2] = biological target: T2, Purified human GUCY2c ECD (recombinant, construct not stated) (human, UniProt P25092 24-430); test: direct ELISA, coated GUCY2c ECD
T2 construct: also called recombinant human GUCY2c; recombinant GUCY2c protein

Human CD3 epsilon-delta = biological target: T1, Human CD3 epsilon-delta; test: direct ELISA, coated CD3 epsilon-delta
Description: Proteins were screened for binding to recombinant human, cyno and mouse proteins by ELISA. Purified human, cynomolgus, murine GUCY2c ECD or human CD3 epsilon-delta proteins were coated on Nunc-Maxisorb 384-well ELISA plates at 1 μg/ml in 20 μl in PBS-CMF (calcium and magnesium free) at 4 C. Plates were washed 3x with PBS+0.05% TWEEN20 and blocked with PBS+3% milk for 1 hr, shaking at RT. Blocking solution was removed and samples serially diluted in block were added and incubated for 1 hr shaking at RT. Plates were washed 3x as before and a secondary antibody was added (goat anti-hu IgG Fc-HRP—Southern Biotech L2047-05, 1:5000;
goat anti-mouse IgG Fc-HRP—Thermo Scientific, diluted 1:4,000; or mouse anti-penta-HIS-HRP, Qiagen, 1:1000), followed by shaking for 1 hr at RT. Plates were washed as before and signal was developed using TMB, the reaction stopped with H2SO4 and the absorbance read at 450 nm on an Envision plate reader (Perkin Elmer). An alternative detection method was also periodically employed in place of TMB/H2SO4. […] Time-resolved fluorescence was then measured at 320 and 615 nm using an EnVision® plate reader (EnVision® Multilabel Plate Reader, Perkin Elmer) following the manufacturer's methods.

Human GUCY2C ECD-muIgG2a = biological target: T3, Human GUCY2C ECD-muIgG2a (human); test: sandwich ELISA: CD3 epsilon-delta coated, GUCY2c ECD-mIgG2a Fc in solution
T3 construct: also called human GUCY2c ECD-mouse IgG2a Fc fusion protein; huGUCY2c-mIgG2a

Human GUCY2C ECD Cleaved = biological target: T4, Human GUCY2C ECD Cleaved (human, UniProt P25092 24-430); test: SPR, human IgG1 against human GUCY2c ECD
T4 construct: also called human GUCY2c extracellular domain protein (ECD)
T4 sequence (P25092 other isoform, or with tags, fused parts or gaps): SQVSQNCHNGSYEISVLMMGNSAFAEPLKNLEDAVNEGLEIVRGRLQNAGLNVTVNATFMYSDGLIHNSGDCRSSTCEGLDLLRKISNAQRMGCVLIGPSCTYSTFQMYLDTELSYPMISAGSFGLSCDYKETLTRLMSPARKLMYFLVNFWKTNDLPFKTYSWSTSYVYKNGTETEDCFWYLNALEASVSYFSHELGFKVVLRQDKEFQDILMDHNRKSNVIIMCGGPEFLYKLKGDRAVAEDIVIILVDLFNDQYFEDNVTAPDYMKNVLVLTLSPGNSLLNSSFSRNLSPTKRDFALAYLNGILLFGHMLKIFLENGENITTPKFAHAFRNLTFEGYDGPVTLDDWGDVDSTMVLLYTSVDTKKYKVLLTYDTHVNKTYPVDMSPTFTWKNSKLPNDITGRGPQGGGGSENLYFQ

Human GUCY2c on tumor cells (T84, HT55), sequence (P25092 24-1073 limits assumed): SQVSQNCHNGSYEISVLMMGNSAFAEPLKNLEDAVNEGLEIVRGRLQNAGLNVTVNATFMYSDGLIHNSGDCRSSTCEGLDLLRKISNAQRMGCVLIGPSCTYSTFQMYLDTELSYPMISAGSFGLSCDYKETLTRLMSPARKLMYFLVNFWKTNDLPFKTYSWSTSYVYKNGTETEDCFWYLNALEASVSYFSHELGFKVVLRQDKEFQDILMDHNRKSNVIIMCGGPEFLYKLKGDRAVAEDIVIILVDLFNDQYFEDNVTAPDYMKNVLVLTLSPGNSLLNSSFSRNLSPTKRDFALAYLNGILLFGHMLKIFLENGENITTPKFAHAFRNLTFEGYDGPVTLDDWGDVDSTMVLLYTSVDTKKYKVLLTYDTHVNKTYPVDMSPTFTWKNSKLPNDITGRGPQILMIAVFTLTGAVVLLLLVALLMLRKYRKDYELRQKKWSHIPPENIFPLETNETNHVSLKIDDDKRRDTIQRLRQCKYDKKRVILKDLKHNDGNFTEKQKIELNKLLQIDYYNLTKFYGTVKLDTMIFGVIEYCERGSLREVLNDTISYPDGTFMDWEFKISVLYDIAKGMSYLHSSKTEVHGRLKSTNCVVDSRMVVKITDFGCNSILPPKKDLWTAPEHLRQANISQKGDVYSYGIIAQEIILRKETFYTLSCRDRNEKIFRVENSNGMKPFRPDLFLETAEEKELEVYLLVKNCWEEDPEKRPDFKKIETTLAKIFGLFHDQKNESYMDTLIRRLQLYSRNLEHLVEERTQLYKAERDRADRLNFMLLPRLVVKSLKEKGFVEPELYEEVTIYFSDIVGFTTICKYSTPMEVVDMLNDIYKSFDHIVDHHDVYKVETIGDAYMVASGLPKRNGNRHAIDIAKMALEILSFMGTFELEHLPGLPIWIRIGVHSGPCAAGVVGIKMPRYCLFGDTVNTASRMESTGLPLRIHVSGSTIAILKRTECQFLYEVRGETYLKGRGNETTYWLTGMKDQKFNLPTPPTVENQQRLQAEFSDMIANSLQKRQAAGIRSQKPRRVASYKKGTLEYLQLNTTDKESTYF
T3 sequence (chain, as listed by the source limits assumed): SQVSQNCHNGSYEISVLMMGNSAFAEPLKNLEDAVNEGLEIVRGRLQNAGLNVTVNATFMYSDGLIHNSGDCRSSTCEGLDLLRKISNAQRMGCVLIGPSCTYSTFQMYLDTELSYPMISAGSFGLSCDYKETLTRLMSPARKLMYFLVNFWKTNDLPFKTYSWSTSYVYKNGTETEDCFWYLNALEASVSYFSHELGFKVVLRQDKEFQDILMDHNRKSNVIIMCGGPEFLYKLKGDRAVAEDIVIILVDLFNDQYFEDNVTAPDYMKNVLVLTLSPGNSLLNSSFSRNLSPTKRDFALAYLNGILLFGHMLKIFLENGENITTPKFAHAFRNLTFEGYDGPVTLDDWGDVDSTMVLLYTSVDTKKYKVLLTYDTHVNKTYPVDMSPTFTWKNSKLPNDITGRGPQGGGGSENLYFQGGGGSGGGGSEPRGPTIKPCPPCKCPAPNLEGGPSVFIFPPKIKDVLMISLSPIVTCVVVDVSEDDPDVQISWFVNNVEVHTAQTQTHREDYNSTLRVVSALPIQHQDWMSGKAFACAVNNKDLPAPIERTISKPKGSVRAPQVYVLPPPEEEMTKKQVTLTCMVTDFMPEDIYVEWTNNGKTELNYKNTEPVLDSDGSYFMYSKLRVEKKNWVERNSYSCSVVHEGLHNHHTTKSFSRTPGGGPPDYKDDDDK
T2 sequence (P25092 24-430 limits assumed): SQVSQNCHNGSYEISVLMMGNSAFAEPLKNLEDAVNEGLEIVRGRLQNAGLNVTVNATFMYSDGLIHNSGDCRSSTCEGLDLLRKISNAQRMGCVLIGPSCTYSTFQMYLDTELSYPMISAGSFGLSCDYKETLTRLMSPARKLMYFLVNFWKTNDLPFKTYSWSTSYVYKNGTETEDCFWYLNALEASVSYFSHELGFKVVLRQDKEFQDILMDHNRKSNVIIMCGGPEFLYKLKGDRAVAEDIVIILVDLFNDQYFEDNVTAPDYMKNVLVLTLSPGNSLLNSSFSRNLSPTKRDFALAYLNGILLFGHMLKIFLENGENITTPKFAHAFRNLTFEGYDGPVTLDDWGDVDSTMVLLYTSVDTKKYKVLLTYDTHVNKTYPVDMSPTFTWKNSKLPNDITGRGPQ

| Binder | T84 tumor cell EC50 (T cell cytotoxicity, E:T 10:1) [1] | EC50 [2] | EC50 (Human CD3 epsilon-delta) | EC50 (Human GUCY2C ECD-muIgG2a) | Kd (Human GUCY2C ECD Cleaved) | koff (Human GUCY2C ECD Cleaved) | kon (Human GUCY2C ECD Cleaved) |
| --- | --- | --- | --- | --- | --- | --- | --- |
| GUCY2C-0078 (bispecific antibody) chain 1: DIVLTQSPASLAVSLGQRATISCRAGESVDNFDISFMNWFQQKPGQPPKLLIYAASNQGSGVPARFSGSGSGTDFSLNIHPMEEDDTAMYFCQQSKEVPYTFGGGTKLEIKGGGSGGGGEVQLVESGGGLVQPGGSLRLSCAASGFTFSDYYMTWVRQAPGKGLEWVAFIRNRARGYTSDHNPSVKGRFTISRDNAKNSLYLQMNSLRAEDTAVYYCARDRPSYYVLDYWGQGTTVTVSSGCPPCPAPEAAGAPSVFLFPPKPKDTLMISRTPEVTCVVVDVSHEDPEVKFNWYVDGVEVHNAKTKPREEQYNSTYRVVSVLTVLHQDWLNGKEYKCKVSNKALPAPIEKTISKAKGQPREPQVCTLPPSREEMTKNQVSLWCLVKGFYPSDIAVEWESNGQPENNYKTTPPVLDSDGSFFLYSKLTVDKSRWQQGNVFSCSVMHEALHNHYTQKSLSLSPG chain 2: DIVMTQSPDSLAVSLGERATINCKSSQSLFNVRSRKNYLAWYQQKPGQPPKLLISWASTRESGVPDRFSGSGSGTDFTLTISSLQAEDVAVYYCKQSYDLFTFGSGTKLEIKGGGSGGGGEVQLQQSGAELARPGASVKLSCKASGYTFTKYWMQWIKQRPGQGLEWIGAIYPGDGFTTYTQKFKGKATLTADKSSNTAYMQLSSLASEDSAVYYCARRNYGRTYGGDYWGQGTSVTVSSGCPPCPAPEAAGAPSVFLFPPKPKDTLMISRTPEVTCVVVDVSHEDPEVKFNWYVDGVEVHNAKTKPREEQYNSTYRVVSVLTVLHQDWLNGKEYKCKVSNKALPAPIEKTISKAKGQPREPQVYTLPPCREEMTKNQVSLSCAVKGFYPSDIAVEWESNGQPENNYKTTPPVLDSDGSFFLVSKLTVDKSRWQQGNVFSCSVMHEALHNHYTQKSLSLSPG | 7.8 nM | 23.5 nM | 1.45 nM | 9.68 nM | – | – | – |
| GUCY2C-1705 (antibody, human IgG1, V domains shown, full human IgG1/kappa) VH: EVQLVESGGGLVQPGGSLRLSCAASGFTFSSYWMHWVRQAPGKGLEWIGEIKPSRGFTNVHEKFKDRFTISVDKAKNSAYLQMNSLRAEDTAVYYCTRTITTTEGYWFFDVWGQGTLVTVSS VL: DIQLTQSPSSLSASVGDRVTITCRASESVDYYGSSLMQWYQQKPGKAPKLLIYAASKLASGVPSRFSGSGSGTDFTLTISSLQPEDFATYYCQQTRKAYTFGQGTKLEIK | – | – | – | – | 6.25 nM | 0.00149 s⁻¹ | 239000 M⁻¹ s⁻¹ |
| GUCY2C-1696 (antibody, human IgG1, V domains shown, full human IgG1/kappa) VH: EVQLVESGGGLVQPGGSLRLSCAASGFTFSTRWMHWVRQAPGKGLEWIGEIKPSNKLTNVHEKFKDRFTISVDKAKNSAYLQMNSLRAEDTAVYYCARTITTTEGYWFLSDWGQGTLVTVSS VL: DIQLTQSPSSLSASVGDRVTITCRASESVDYYGHSLMQWYQQKPGKAPKLLIYAASKLASGVPSRFSGSGSGTDFTLTISSLQPEDFATYYCQQTRKAYTFGQGTKLEIK | – | – | – | – | 12.4 nM | 0.00179 s⁻¹ | 144000 M⁻¹ s⁻¹ |
| GUCY2C-1703 (antibody, human IgG1, V domains shown, full human IgG1/kappa) VH: EVQLVESGGGLVQPGGSLRLSCAASGFTFSSYWMHWVRQAPGKGLEWIGEIKPSNRWNNVHEKFKDRFTISVDKAKNSAYLQMNSLRAEDTAVYYCTRTITTTEGYWFFDVWGQGTLVTVSS VL: DIQLTQSPSSLSASVGDRVTITCRASESVDYYGSSLMQWYQQKPGKAPKLLIYAASKLASGVPSRFSGSGSGTDFTLTISSLQPEDFATYYCQQTRKAYTFGQGTKLEIK | – | – | – | – | 10.3 nM | 0.00214 s⁻¹ | 210000 M⁻¹ s⁻¹ |
| GUCY2C-1706 (antibody, human IgG1, V domains shown, full human IgG1/kappa) VH: EVQLVESGGGLVQPGGSLRLSCAASGFTFSSTWMHWVRQAPGKGLEWIGEIKPSNELTNVHEKFKDRFTISVDKAKNSAYLQMNSLRAEDTAVYYCTRTITTTEGYWFFDVWGQGTLVTVSS VL: DIQLTQSPSSLSASVGDRVTITCRASESVDYYGSSLMQWYQQKPGKAPKLLIYAASKLASGVPSRFSGSGSGTDFTLTISSLQPEDFATYYCQQTRKAYTFGQGTKLEIK | – | – | – | – | 9.75 nM | 0.00193 s⁻¹ | 198000 M⁻¹ s⁻¹ |
| GUCY2C-1708 (antibody, human IgG1, V domains shown, full human IgG1/kappa) VH: EVQLVESGGGLVQPGGSLRLSCAASGFTFSRPWMHWVRQAPGKGLEWIGEIKPSTGWTNVHEKFKDRFTISVDKAKNSAYLQMNSLRAEDTAVYYCTRTITTTTGYWFFDVWGQGTLVTVSS VL: DIQLTQSPSSLSASVGDRVTITCRASESVDYYKHSLMQWYQQKPGKAPKLLIYAASKLASGVPSRFSGSGSGTDFTLTISSLQPEDFATYYCQQTRKAYTFGQGTKLEIK | – | – | – | – | 9.44 nM | 0.00132 s⁻¹ | 140000 M⁻¹ s⁻¹ |
| GUCY2C-1710 (antibody, human IgG1, V domains shown, full human IgG1/kappa) VH: EVQLVESGGGLVQPGGSLRLSCAASGFTFSSYWMHWVRQAPGKGLEWIGEIKPSRGWTNVHEKFKDRFTISVDKAKNSAYLQMNSLRAEDTAVYYCARTITTTEGYWFFDVWGQGTLVTVSS VL: DIQLTQSPSSLSASVGDRVTITCRASESVDYYRHSLMQWYQQKPGKAPKLLIYAASKLASGVPSRFSGSGSGTDFTLTISSLQPEDFATYYCQQTRKAYTFGQGTKLEIK | – | – | – | – | 5.94 nM | 0.00147 s⁻¹ | 248000 M⁻¹ s⁻¹ |
| GUCY2C-1713 (antibody, human IgG1, V domains shown, full human IgG1/kappa) VH: EVQLVESGGGLVQPGGSLRLSCAASGFTFSHTWMHWVRQAPGKGLEWIGEIKPSRGFTNVHEKFKDRFTISVDKAKNSAYLQMNSLRAEDTAVYYCTRTITTTQGYWFFDVWGQGTLVTVSS VL: DIQLTQSPSSLSASVGDRVTITCRASESVNWYGSSLMQWYQQKPGKAPKLLIYAASKLASGVPSRFSGSGSGTDFTLTISSLQPEDFATYYCQQTRKAYTFGQGTKLEIK | – | – | – | – | 6.71 nM | 0.00108 s⁻¹ | 161000 M⁻¹ s⁻¹ |
| GUCY2C-1714 (antibody, human IgG1, V domains shown, full human IgG1/kappa) VH: EVQLVESGGGLVQPGGSLRLSCAASGFTFSHTWMHWVRQAPGKGLEWIGEIKPSTKYTNVHEKFKDRFTISVDKAKNSAYLQMNSLRAEDTAVYYCARTIFTREGYWFFDVWGQGTLVTVSS VL: DIQLTQSPSSLSASVGDRVTITCRASESVNWYGSSLMQWYQQKPGKAPKLLIYAASKLASGVPSRFSGSGSGTDFTLTISSLQPEDFATYYCQQTRKAYTFGQGTKLEIK | – | – | – | – | 10.3 nM | 0.00124 s⁻¹ | 121000 M⁻¹ s⁻¹ |
| GUCY2C-1640 (antibody, human IgG1, kappa, V domains shown) VH: EVQLVESGGGLVQPGGSLRLSCAASGFTFSSYWMHWVRQAPGKGLEWIGEIKPSNELTNVHEKFKDRFTISVDKAKNSAYLQMNSLRAEDTAVYYCTRTITTTEGYWFFDVWGQGTLVTVSS VL: DIQLTQSPSSLSASVGDRVTITCRASESVDYYGSSLLQWYQQKPGKAPKLLIYAASKLASGVPSRFSGSGSGTDFTLTISSLQPEDFATYYCQQTRKAYTFGQGTKLEIKR | – | – | – | – | 13.9 nM | 0.00271 s⁻¹ | 195000 M⁻¹ s⁻¹ |
